Test results from the nanobody polyreactivity screen of Harvey et al. (2022).

Experiment: yeast display, Sf9 membrane polyspecificity reagent, FACS + sequencing; frameworks hold sequencing errors
Procedure, shortened: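 Polyreactivity labels are assigned by the sorting gate from which each nanobody was recovered. The gates were low and high (top ~1%), set on anti-HA fluorescence for expression and streptavidin fluorescence for reagent binding. Before sorting, galactose-induced (36–48 hours) yeast display cells were stained for 1 hour at 4 °C with 10% biotinylated, detergent-solubilized Sf9 membrane reagent.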

| Sequence | polyreactivity (PSR sort gate) |
| --- | --- |
| QVQLVESGGGLVQAGGSLRLSCAASGFIFYYNAMGWYRQAPGKERELVATITSGGSTNYADSVKGRFTISRDNAKNTVYLQMNSLKPEDTAVYYCAAGHSWVYGYDYWGQGTQVTVSS | low polyreactivity |
| QVQLVESGGGLVQAGGSLRLSCPASGRIFYYNAIGWYRQAPGKERELVATITRAGGTYYADSVKGRFTISRDNAKNTVYLQMNSLKPEDTAVYYCAKRHPIVDDYKGDYWGQGTQVTVSS | low polyreactivity |
| QVQLVESGGGLVQAGGSLRLSCAASGFTFISYAMGWYRQAPGKERELVAVINQRGGRTYYADSVKGRFTISRDNAKNTVYLQMNSLKPEDTAVYYCATRLKSVSGGYNYWGQGTQVTVSS | high polyreactivity |
| QVQLVESGGGLVQAGGSLRLSSAASGRTLAGYAMGWYRQAPGKERELVAAISRSGGRTYYADSVKGRFTISRDNAKNSVYLQMNSLKPEDTAVYYCAADTRIEVYYWGQGTQVTVSS | high polyreactivity |
| QVQLVESGGGLVQAGGSLRLSCAASGSIFRRNSMGWYRQAPGKERELVAAITRRGGSTYYADSVKGRFTISRDNAKNTVYLQMNSLKPEDTAVYYCAADPPDGFYYTWDYDYWGQGTQVTVSS | low polyreactivity |
| QVQLVESGGGLVQAGGSLRLSCAASGYTFPFYTMGWYRQAPGKERELVAAINSGGSTYYADSVKGRFTISRDNAKNTVYLQMNSLKPEDTAVYYCGAGRHSEDNYWGQGTQVTVSS | high polyreactivity |
| QVQLVESGGGLVQAGGSLRLSCAASGFILDYNTMGWYRQAPGKERELVAAISSSGDTTYYADSVKGRFTISRDNAKNTVYLQMNSLKPEDTAVYYCDREYGDGYEYWGQGTQVTVSS | low polyreactivity |
| QVQLEESGGGLVQAGGSLRLSCAASGFTFGFYAMGWYRQAPGKERELVARISYSGGSTYYADSVKGRFTISRDNAKNTVYLQMNSLKPEDTAVYYCNRGYRRLQEDYWGQGTQVTVSS | high polyreactivity |
| QVQLVESGGGLVQAGGSLRLSCAASGSTFSKYAMGWYRQAPGKERELVAAISRSGGNTYYADSVKGRFTISRDNAKNTVYLQMNSLKPEDTAVYYCATTLYSYSTGRYRLDYWGQGTQVTVSS | high polyreactivity |
| QVQLVESGGGLVQAGGSLRLSCAASGFTFTRYAMGRYRQAPGKERELGATITKRGGSTYYADSVKGRFTISRDNAKNTVYLQLNSLKPEDTAVYFCAARNVRTYVTGVDYDYWGQGTQVTVSS | high polyreactivity |
| QVQLVESGGGLVQAGGSLRLSCAASGSIFYYNAKGWYRQAPGKERELVAGIRRSGDSTYYADSVKGRFTISRDNAKNTVYLQLNRLKPEDTAVYYCAADRVYEASQGYTYFDYDYWGQGTQVTVSS | low polyreactivity |
| QVQLVESGGGLVQAGGSLRLSCAASGFIFWYYAMGWYRQAPGKERELVAAITTSDGSTYYADSVKGRFTISRDNAKNTVYLQMNSLKPEDTAGYYCAADSYYVSYGYYYCGQGTQVTVSS | low polyreactivity |
| QVQLVESGGGLVQAGGSLRLSCAASGSTFNRYAMGWYRQAHGKERELVAGISYRGGTYYSDSVKGRFTISRDNAKNTVYLQMNSLKPEDTAVYYCNVVRRGTTSYDDYEYWGQGTQVTVSS | high polyreactivity |
| QVQLVESGGGLVQAGGSLRLSCAASGRIFGVNAMGWYRQAPGKERELVAAIRYRDGSTYYADSVKGRFIISRDNAKNTVYLQMNSLKPEDTAVYYCNALHQRFYAQPGDYWGQGTQVTVSS | high polyreactivity |
| QVQLVESGGGLVQAGGSLRLSCAASGSTFLLYDMGWYRQAPGKERELVAAITWSGGSTYYADSVKGRFTISRDNAKNTVYLQMNSLKPEDTAVYYCAADSLGDRYYYWGQGTQVTVSS | low polyreactivity |
| QVQLVESGGGLVQAGGSLRLSCAASGSTFKTYAMGWYRQAPGKEREFVAAINWRGTSTYYADSVKGRFTISRDNAKNTVYLQMNSLKPEDTAVYYCAAQRYGYGYQWYDHWGQGTQVTVSS | high polyreactivity |
| QVQLVESGGGLVQAGGSLRLSCAASGLTFFKYTMGWYIQAPGKERELVAAINGGGSTNYADSVKGRFTISRDNAKNTVYLQMNSLKPEDTAVYYCAAGLPYGYDYWGQGTQVTVSS | low polyreactivity |
| QVQLVESGGGLVQAGGSLRLSCAASGSTFTYYAMGWYRQAPGKERELVAAITSGGSTNYADSVKGRFTISRDNAKNTVYLQMNSLKPEDTAVYYCAAEYVRQNYEMDYWGQGTQVTVSS | low polyreactivity |
| QVQLVESGGGLVQAGGSLRLSCAASGSIFSAYAMGWYRQAPGKERELVAAITKSSVTYYADSVKGRFTISRDNAKNTVYLQMNSLKPEDTAVYYCAAYSPRPSDLYSPIAYYYWGQGTQVTVSS | low polyreactivity |
| QVQLVESGGGLVQAGGSLRLSCAASGSTFDYNAMGWYRPAPGKERELVAVISSGTRTYYADSVKGRFTISRDNAKNTVYLQMNSLKPEDTAVYFCNKRFYPEHYYWGQGTLVTVSS | high polyreactivity |
| QVQLVESGGGLVQAGGSLRLSCAASGIIFSHNVMGWYRQAPGKERELVAAITYSGGSTYYADSVKGRFTISRDNAKNTVYLLMNSLKPEDTAVYYCNALGVSRRDYDYWGQGTQVTVSS | low polyreactivity |
| QVQLVESGGGLVQAGGSLRLSCAASGRTGVNAMGWYRQAPGKERGLVAAINTSVGRTYYADSVKGRFTISRDNAKNTVYLQMNSLKQEDTAVYYCNTDRLGAARYDYWGHGTQVTVSS | low polyreactivity |

| Sequence | polyreactivity (PSR sort gate) |
| --- | --- |
| QVQLVESGGGLVQAGGSLRLSCAATGIIFSWYDMGWYRQAPGKERELVAAITSGGSTYYADSVKGRFTISRDNAKNTVYLLMNSLKPEDTAVYYCNRYSYLFPYYWKYDYCGQGTQVTVSS | high polyreactivity |
| QVQLVESGGGLVQAGGSLRLSCAASGRTFRFYAMGWNRQAPGKERELVAAINWTGGSTYYADSVKGRFTISRDNAKNTVYLQMNSLKPEDTAVYYCAKVQDYRFEYWGQGTQVTVSS | high polyreactivity |
| QVQLVESGGGLVQAGGSLRLSCAASGRIFPANAMGWYRQAPGKERELVAGITWRGDSTYYADSVKGRFTISRDNAKNTVYLQMNSLKPEDTAVYYCAATFRYTKLYYWGHGTQVTVSS | low polyreactivity |
| QVQLVESGGGLVQAGGSLRLSCAASGFTFNNNAMGWYRQAPGKERELVAAISSSGGNTYYADSVKGRFTISRDNAKNTVYLQMNSLKPEDTAVYYCNAGKRQRGEYWGQGTQVTVSS | high polyreactivity |
| QVQLVESGGGLVQAGGSLRLSCAASGSIFRVNAMGWYRQAPGKERELVAAISRRGGRRYYADSVKGRFTISRDNAKNTVYLQMNSLKPEDTAVYYCAAGVSVSASPYNGFDYWGQGTQVTVSS | high polyreactivity |
| QVQLVESGGGLVQAGGSLRLSCAASGRIFSGYAMGWYRQATGKERELVAAITSVGSTNYADSVKGRFTISRDNAKNTVYLQMNSLKPEDTAVYYCAARSQIYYRYRSYGYWGQGTQVTVSS | high polyreactivity |
| QVQLEDSGGGLVQAGGSLRLSCAASGIIFYSYAMGWYRQAPVKERELVATISFSGDNTYYADSVKGRFTISRDNAKNTVYLQMNSLKPEDTAVYYCAAASTYGGYYYSVSFEYWGQGTQVTVSS | low polyreactivity |
| QVQLVESGGGLVQAGGSLRLSCAAYGFTFAFYALGRYRQSPGKERELVAAITGSGGSTYYADSVKGRFTISRDNSKNTVYLQMNSLKPEDTAVYYCNTYTYYSRMDYWGQGTQVTVSS | high polyreactivity |
| QVQLVESGGGLVQAGGSLRLSCAASGSIFRPNAMGWYRQAPGKERELVAAINTSDDSTYYADSVKGRFTISRDNAKNTVYLQMNSLKPEDTAVYYCASDGVVPGRFFWPAHEYDYWGQGTQVTVSS | low polyreactivity |
| QVQLVESGGGKVQAGGSLRLSCAASGFILSRNAMGWYRQAPGKERELVAAISRSGTRTYYADSVKGRFTISRDNEQNTVYLQMNSLKPEDTAVYYCARVSKRTWTGYYYWGQGTQVTVSS | high polyreactivity |
| QVQLVESGGGLVQAGGSLRLSCAASGRIFFRNALGWYRQAPGKERELVAVINTGGSTNYADSVKGRFTISRDNAKNTVYLQMNSLTPEDTAVYYCAVDRASRRTYNQYGYWGQGTQVTVSS | high polyreactivity |
| QVQLVESGGGLVQAGGSLRLSCAASGRTFGYNVMGWYTQAPGKERELVAGISESGGRTYYADSVKGRVTISRDNAKNTVYLQMNSLKPEDTAVYYCAKRYQRASYDYWGQGTQVTVSS | high polyreactivity |
| QVQLVESGGGLVQAGGSLRLSCAASGLIFNFYAMGWYRPAPGKEREFVAAISWNAGSTYYADSVKGRFTISRDNAKNTVYLQMNSLKPEDTAVYYCNADQDYQGARPSGMDYWGQGTQVTVSS | low polyreactivity |
| QVQLEDSGGGLVQAGGSLRLSCAASGSTFYTYAMGWYRQAPGKERELVAAITFIDGSTYYADSVKGRFTISRDNAKNTVYLQMNSLKPEDTAVYYCAADDAKFRYRDDYWGQGTQVTVSS | low polyreactivity |
| QVQLVESGGGLVQAGGSLRLSCAASGSIFAYYAMGWYRQAPGKERELVAAIDSGGGTSYADSVKGRFTISRDNAKNTVYLQMNSLNPEDTAVYYCNAAGYVVYYRIIAFGYWGQGTLVTVSS | low polyreactivity |
| QVQLVESGGGLVQAGGSLRLSCAASGRTLGRYAMGWYRQAPGKERELVAAINVGGGTTHYADSVKGRFTISRDNAKNTVYLQMNSLKPEDTAVYYCAASYRDGHIRHDYWGQGTQVTVSS | low polyreactivity |
| QVQLVESGGGLVQAGGSLRLSCAASGYIFGVYAMGWYRQAPGKERELVAAISYGVGSTYYADSVKGRFTISRDNAKNTVYLQMNSLKPEDNAVYYCAAEDTQVRWSPVRPLEDYWGQGTQVTVSS | low polyreactivity |
| QVQLVESGGGLVQAGGSLRLSCAASGFIFSRNAMGWYRQAPGKERELVATISKRGGSTYYADSVKGRFTISRDNAKNTVYLQMNSLKPEDTAVYYCAATGGILSTYDYWGQGTQVTVSS | high polyreactivity |
| QVQLVQSGGGLVQAGGSLRLSCAASGRIFKYNAMGWYRQAPGKERDLVAVITSGGSTYYADSVKGRFTISRDNAKNTFYLQMNSQKPEDTAVYSCAKKYYKVHKFDYWGQGTQVTVSS | low polyreactivity |
| QVQLVESVGGLVQAGGSLRISCAASGRIFYNYAMGRYRQAPGKERELVAAISGSGGSTYYADSVKGRFTISRDIAKNTVYLQMNSLIPEDTAVFYCSTSGPQYYSRNFDYWGQGTQVTVSS | low polyreactivity |
| QVQLVESGGGLVQAGGSLRLSCAASGSSFSGNFMGWYRQAPGKERELVAAISGRGGSTYYADSVKGRFTISRDNAKNTVYLQMNSLKPEDTAVYYCDAVYLKTYYWGLGTQVTVSS | high polyreactivity |
